Measured values as given in patent US20250136687A1 (SHANDONG SIMCERE BIOPHARMACEUTICAL, published 2025).

What was measured:
[1] = molecular target: T1, human CD3ε/δ-His (human, UniProt P07766 23-126; P04234 22-105); assay: SPR, antibody captured on Protein A chip
T1 construct: Bought recombinant heterodimer with His tag; also called human CD3ε/δ protein

[2] = molecular target: T2, recombinant human CD3ε-ECD His protein (human, UniProt P07766 23-126); assay: SPR (Biacore), antibody captured on Protein A chip
T2 construct: extracellular domain; also called human CD3ε-His; CD3ε antigen protein; not shown: His tag
T2 sequence (P07766 23-126): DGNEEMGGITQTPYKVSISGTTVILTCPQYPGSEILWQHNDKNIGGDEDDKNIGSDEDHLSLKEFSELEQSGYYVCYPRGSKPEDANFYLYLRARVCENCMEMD

T1 sequence (P07766 23-126, stated change not applied, form in doubt, chain 1 of 2): as the sequence (P07766 23-126) above
T1 sequence (P04234 22-105, stated change not applied, form in doubt, chain 2 of 2): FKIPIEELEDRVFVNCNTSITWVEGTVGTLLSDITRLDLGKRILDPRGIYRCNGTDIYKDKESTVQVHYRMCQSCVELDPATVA

Kd [1]: 21.3 nM | koff [1]: 0.0327 s⁻¹ | kon [1]: 1.53e+06 M⁻¹ s⁻¹ | Kd [2]: 0.203 nM | koff [2]: 0.000321 s⁻¹ | kon [2]: 1.58e+06 M⁻¹ s⁻¹
B1: 40G5c-hIgG1 (antibody, V domains shown)
VH: EVQLVQSGAEVKKPGASVKVSCKASGYTFTNYYIHWVRQAPGQGLEWIGWIYPGDGNTKYNEKFKGRATLTADTSTSTAYLELSSLRSEDTAVYYCARDSYSNYYFDYWGQGTLVTVSS
VL: DIVMTQSPDSLAVSLGERATINCKSSQSLLNSRTRKNYLAWYQQKPGQPPKLLIYWASTRESGVPDRFSGSGSGTDFTLTISSLQAEDVAVYYCTQSFILRTFGQGTKVEIKR
